Experimental data reported in patent publication US20170043014A1 (Novo Nordisk, published 2017).

Target: Recombinant mouse IL-21 (mouse, UniProt Q9ES17 18-146)
Assay: capture style ELISA, clone selection

binding result: binds
B1: Mouse surrogate anti-IL-21 antibody (antibody, IgG1, V domains shown)
VH: EVQLVESGGGLVKPGGSLKLSCAASGFTFNRYSMSWVRQSPEKRLEWVAEISVGGSYTQYVDIVTGRFTISRDNAKNTLYLEMSSLRSEDTAMYYCARLYYSGSGDSYYYAMDYWGQGTSVTVSS
VL: QTVLIQSPAIMSASPGEKVTMTCSASSSVSYMHWYQQKSGTSPKRWIYDTSKLASGVPARFSGSGSGTSYSLTISSMEAEDAATYYCQQWNSNPPTFGGGTKLEMK
notes: mIgG1/kappa isotype
